In a protein production outcome set (Wang et al. 2014):

Assay: label from the status in PepcDB records

Row | Sequence | protein production
1 | MSKIADDQNFNDEEENFAKLFKKELEKEETLEKGTIKEGLVVSINENDGYAMVSVGGKTEGRLALNEITDEKGQLLYQKNDPIIVHVSEKGEHPSVSYKKAISQQKIQAKIEELGENYENAIIEGKIVGKNKGGYIVESQGVEYFLSRSHSSLKNDANHIGKRVKACIIRVDKENHSINISRKRFFEVNDKRQLEVSKELLEATEPVLGVVRQITPFGIFVEAKGIEGLVHYSEISHKGPVNPEKYYKEGDEVYVKAIAYDAEKRRLSLSIKATIEDPWEEIQDKLKPGYAIKVVVSNIEHYGVFVDIGNDIEGFLHVSEISWDKNVSHPNNYLSVGQEIDVKIIDIDPKNRRLRVSLKQLTNRPFDVFESKHQVGDVLEGKVATLTDFGAFLNLGGVDGLLHNHDAFWDKDKKCKDHYKIGDVIKVKILKINKKDKKISLSAKHLVTSPTEEFAQKHKTDSVIQGKVVSIKDFGVFINADGIDVLIKNEDLNPLKKDEIKIGQEITCVVVAIEKSNNKVRASVHRLERKKEKEELQAFNTSDDKMTLGDILKEKL | failed
2 | MSKICQITGKKAMVGNNVSHSKRRTKRVFDVNLFRKKFYWVEQDCWVVLRISAAGLRLINKIGLDAAIKRAAEKGFLNALEHHHHHH | not failed
3 | MSKKQKSKYIVIFGCGRLGSLIANLASSSGHSVVVVDKNEYAFHRLNSEFSGFTVVGDAAEFETLKECGMEKADMVFAFTNDDSTNFFISMNARYMFNVENVIARVYDPEKIKIFEENGIKTICPAVLMIEKVKEFIIGSEED | not failed
4 | MSKKTDVVKEYTRIDSKRGLSITTGANRMKLFDRRVLELGRGEYGKLWNVIILGLLISFSYIVQGLLIAVILNGVFAGTPLHESRLYFAAVALLIVLRWIMIRENDRIAARTASNIAMSLRRRMYHKLYELGPGWIMTQKSGVIQATLVDGAEALQNYYGRFLPQVVVSIAAGISIVAILFYVDMTIGLVIGGMMIAALIQPLAIYKGVGKGIRIWFVAMPRLFAEYVDNIQGIVTLKSFNASQRQGKILYQRTNDLYDAEIGILRDEILWSVPPGLVAAICGTVAIIIGAIRMDAGALSAAGLLFVLLLVREALRPVTDLRQTIHFSFSGMGAAEGVLDILEATPLAAVTARPTPSSIPHSFAFEDVTFRYRKTDASAVENLSFKVEPGDKVALVGRSGSGKTTVTSLLMRYFDPQAGIIRLGGEDIRHIPADELHAMYSIVSQDTFLFHGTVRDNLLMAKPEASQEELERAARAAAAHKFIATLPDSYDTLIGERGVRLSGGERQRIAIARAILKDAPILILDEATSSVDVANETLIREAIAGLAHDRTTLLISHRLSAVRDADRIYVLEKGRLMEAGTHSKLVGCNGNYSALVRAEEECI | failed
5 | MSKLAQIVQKLKKQGIEAAVLSDPVSINYLTGFYSDPHERLMFLFLFADQEPLLFLPELDALRAKSILDISVTGYLDFENPLEKIKTLLPKTNYSKIALEFDNLNVTKFKGLETIFSGQFTNLTPLINRMR | not failed
6 | MSKLEFLAFYDELTGLPNKNSLIRWLNLKVSQMDCIDTYLIFLEVRDLEKLNVTYGYDLVDELIIHISKRIKDIAGEGNKAFKIGFDRFAIICKSENISDFIERMLSQLLLPYNVNGNLIRVNFNIGAAQIENSNEAAANLMRRCDLALIKAKEEGLNEYVIFKPSIEIQTLEHHHHHH | not failed
7 | MSKLIGMLLNDKQVYVGPFLRGKKGILLAVESLKGNTFDDKQWVVDRAQKKSEREMELKVPYEQSLKEIADKFQSYNFRGSGFVAFSTQNVTISGICKDVIDESVAMPPSVGPRMPIYPLGSPGIRKSMFYG | not failed
8 | MSKLKTIALTASGLSVCPGFLYAQNTSSHQIGLAIMRLNSSILDLPPTKQYFQSGSLWSELRQGFRMGEVNPELVRRHESKFIASHSYFNRVINRSRPYMYHIANEVKKRNMPAEAALLPFIESAFVTKAKSHVGASGLWQFMPATGRHYGLEKTPVYDGRHDIYAATDAALNYLQYLYGLFGDWPLAFAAYNWGEGNVGRAINRARAQGLEPTYENLRMPNETRNYVPKLLAVRNIIAAPQSFGMNISDIDNKPYFQAVEPDRPLDNEAIARLAGITQSELLALNPAFNVPAFIPKSKRKLLLPVASVQTFQSNYLNAAPDSLFSWEVYTPAAKTSLSDISTATGMSIADIKRLNNLNGNLVNAGRSILVAKNGKTLQTASESVVSIDIDNTPNTYRSNMPAGTVNVGIARIRPAAAQTADITVAPLPQKTVRTEPDPLVRIAEPALATAAAQPQTEKQTAMPSETQTATLAQIVPQNDMQAADELMQLVARNNLRRQAEETISAVIGTPDTVAEHNISSSPQHTVAADGKRRVRLETRVAKAADGEAEISPLHASIHRVVEGDTLFNIAKRYNVSVADLIVANNIKGNTIQKGQVLRLAQAAPAQTRIEKVSYTARKGDTFKSIAARFNIHIDDIRRLNPNLNTINPGQRVKLIGS | failed
9 | MSKMRFFALQELSNRKPLEITTPSNKLSDYYASHVFDRKKMQEYLPKEAYKAVVDATEKGTPISREMADLIANGMKSWAKSLNVTHYTHWFQPLTDGTAEKHDGFIEFGEDGEVIERFSGKLLIQQEPDASSFPNGGIRNTFEARGYTAWDGSSPAFVVDTTLCIPTIFISYTGEALDYKTPLLKALAAVDKAATEVCQLFDKNITRVFTNLGWEQEYFLVDTSLYNARPDLRLTGRTLMGHSSAKDQQLEDHYFGSIPPRVTAFMKELEIECHKLGIPVKTRHNEVAPNQFELAPIFENCNLANDHNQLVMDLMKRIARKHHFAVLFHEKPYNGVNGSGKHNNWSLCTDTGINLFAPGKNPKGNMLFLTFLVNVLMMVHKNQDLLRASIMSAGNSHRLGANEAPPAILSIFLGSQLSATLDEIVRQVTNSKMTPEEKTTLKLGIGRIPEILLDTTDRNRTSPFAFTGNRFEFRAAGSSANCAAAMIAINAAMANQLNEFKASVDKLMEEGIGKDEAIFRILKENIIASELIRFEGDGYSEEWKQEAARRGLTNICHVPEALMHYMDNQSRAVLIGERIFNETELACRLEVELEKYTMKVQIESRVLGDLAINHIVPIAVSYQNRLLENLCRMKEIFSEEEYEVMSADRKELIKEISHRVSAIKVLVRDMTEARKVANHKENFKEKAFAYEETVRPYLESIRDHIDHLEMEIDDEIWPLPKYRELLFTK | not failed
10 | MSKPAITLWSDAHFFSPYVLSAWVALQEKGLSFHIKTIDLDSGEHLQPTWQGYGQTRRVPLLQIDDFELSESSAIAEYLEDRFAPPTWERIYPLDLENRARARQIQAWLRSDLMPIREERPTDVVFAGAKKAPLTAEGKASAEKLFAMAEHLLVLGQPNLFGEWCIADTDLALMINRLVLHGDEVPERLVDYATFQWQRASVQRFIALSAKQSG | not failed
11 | MSKTPRIRIPPEVRQYVFQRDKFQCQSCGKTGLETNLTIDHIIPLARGGQNDISNLHTLCFDCNRCKTDKLDSRFRRHFEI | failed
12 | MSKVVGLSSKKSRWLLQSLRDQQRHSLGTGFESANILLSPKYHLKDKDLRKIHKAARVGDAARVQQLLLGKCGVNDKDKKKRWQGPRDGGCGGGGACVEESPHTTALHIACAYGHPKVVMALIEGRCEINATDSEECTSLVKAVQCQEEECATILLENGADPNIVDAQGNSALHYAVYYKNTSLAAKLLDHEVNIEATNKVEILHQRGVNQSTIVAKCVENPGLQSTGTIFCPHLTPLPEQGLTSSLKLTVVLNLAGGGGGEVSRGGRETETDTGGFTPLLLAVSENKLQIAKFLLMKNANIHAVDNQKRTALMHAVSHDSTHLVRFVLQQGVDLFLNDAFGLTAIDYAADFKYNTKVKQHQGLEKKSKSVSENLPLIRIGVDGLLQVNGQAVEEGRKQEWSEWGASESLQAAALDGGDLTSPLPRRRNKQAGKPGTQESPSVDSKEQDGGSDLNIKEENKKGYEEWSRDFVNELTSEKFGSVACDLLPVKDSWSLNGMDPNKGRPAKRKSKEKHKVEASLMMAEHGIDL | failed
13 | MSLAADKVDILYLEDDEVDIQSVERVFHKISSLIKIEIAKSGNQALDMLYGRNKENKIHPKLILLDINIPKMNGIEFLKELRDDSSFTDIEVFVLTAAYTSKDKLAFESLNIRGHLIKPLDYGEAIKLFWILQSMEGHHHHHH | not failed
14 | MSLAEFRAQYLVRFWSPIPALLALGVASAYYFAITGTFWAVTGEFTRWGGHIAALLGFSPQQWSYFQLIGLNGSPLERIDGVMIIGMFAGALCAALWAGNVQLRWPTSRRRLAQGLIGGIIAGFGARLAMGCNLAAFFTGIPMFSLHAWAFMLTTVIGAWIGVKLCLLPFLRTPLRLDTAPSSLFADTASLARRARLQNRLGLLIAVLVLGFAAWRFETSLVLGLAVLFGVFFGAVIERGQICFTSAARDLWTTGRTRIAYGILLGMVVACLGTFGAIALGATPKIFWMGPNAALGGLLFGIGIVLAGGCETGWMYRAMEGQVHFWIVGIGNVIGGTLVAIFWDELGGTLALPYPKINLLEYLGAGTGLLLSLAGLMLAMLLVYLNARRFAVREGLAR | failed
15 | MSLAEPRYKADIGGGSLKLPESRIIAGLLLEGVTEDQWRHAIEVENVLQRRSPGTAKRQSSLMRNRLETMGPELWQMVRDGSTQVAIQAVFAAAIKHSTLLGDFLDLVVRDQFRMFRPDLPRKMWDQYLEQCRNRDPLMPVWQDSTANKLADCVYRILVEVGYITDSKTYRLKSVRISGEVMSYLRENNEQYVIRCIQVSIEGHHHHHH | not failed
16 | MSLAEVGSKSVLFVCLGNICRSPIAEAVFRKLVTDEKVSDNWAIDSSAVSDWNVGRPPDPRAVSCLRNHGISTAHKARQITKEDFATFDYILCMDESNLRDLNRKSNQVKNCKAKIELLGSYDPQKQLIIEDPYYGNDSDFEVVYQQCLRCCKAFLEKTYEGHHHHHH | not failed
17 | MSLAHERSSGIYLVAASAVLWSTAGLFVRMADMDMWSMVAWRSAFTFLALGAFFLLRNRFARQRSSMSFGFPGIAGCLVSAIAAITYIASLRWTTVANVMTIYATLPFIVAGIAFVCLRDRVTYRFVIAGCLAFVGVLISVGAAVSHQDMLGIFAAFIMTTGCATQIVIAKRFPDMDTTLMTALAALICICVALPLMQFEIPAPTQIIACALYGVLTTAFGYIFLLQGSRRINAGEAGLISMLDVILGPVWVWLFYNEVISPIVLTGGGIVIMSVAWYLAGDRRAATAP | failed
18 | MSLALYLGNKRMNDMYYTIGQVAKMQHLTISQIRYYDKQGLFPFLQRNEKGDRIFNEEALKYLEMILCLKNTGMPIQKIKQFIDWSMEGDSTILHRLKLMKQQEANVLQLIQDTEKNLKKIQQKIAKYEDEISSANATTKEGHHHHHH | not failed
19 | MSLARCERLRGAALRDVLGRAQGVLFDCDGVLWNGERAVPGAPELLERLARAGKAALFVSNNSRRARPELALRFARLGFGGLRAEQLFSSALCAARLLRQRLPGPPDAPGAVFVLGGEGLRAELRAAGLRLAGDPSAGDGAAPRVRAVLVGYDEHFSFAKLREACAHLRDPECLLVATDRDPWHPLSDGSRTPGTGSLAAAVETASGRQALVVGKPSPYMFECITENFSIDPARTLMVGDRLETDILFGHRCGMTTVLTLTGVSRLEEAQAYLAAGQHDLVPHYYVESIADLTEGLEDEGHHHHHH | not failed
20 | MSLARPLSFHEDRLFPSDPATRSYARGLYALVKDLPIISPHGHTDPSWFATNAPFQDATDLLLAPDHYLFRMLYSQGVSLDALKVRSKAGVPDTDPREAWRVFASHFYLFRGTPSWVWLNHVFSQVFGFTEFLEASNADDYFDRITAALATDAFRPRALFDRFNIETLATTEGPHESLQHHAAIRESGWGGHVITAYRPDAVIDFEDERSPRAFERFAETSGQDVYSWKSYLEAHRLRRQAFIDAGATSSDHGHPTAATADLSDVEAEALFNSLVKGDVTPEKAELFRAQMLTEMAKMSLDDGLVMQIHPGSHRNHNVGLLNSHGRDKGADIPMRTEYVDALKPLLTRLGNDPRLSIILFTLDETTYSRELAPLAGHYPVLKLGPSWWFHDSPEGMMRFREQVTETAGFYNTVGFNDDTRAFLSIPARHDVARRVDSAFLARMVAEHRMDLVEAEELIVDLTYNLPKKAYKLDQRPDWARPATLRAAAEEGHHHHHH | not failed
